1 protein from patent publication US20030175888 can be followed below.

One series concerns the target T1, LnmP PCP (holo-form).
T1 chain: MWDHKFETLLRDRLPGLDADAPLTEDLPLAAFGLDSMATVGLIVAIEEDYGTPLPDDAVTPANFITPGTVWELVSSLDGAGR

B1: LnmG (protein)
chain: MVALVFPGQGSQRKGMGADLFARFPDLTRQADTVLGHSVEELCRSSGDGRLDRTEYAQPALFVVSALSYLARDPGLPQPTLLAGHSLGEYGALFAAGCFDFATGVRLVRERGALMGRAQGGGMLAVLGVDGDEVQALLAGTGARQVDVANYNTPTQTVLSGPLDELRMVSAALGQRPGVRCVPVRVSAAFHSRHMRPAAQEFATFLTGFSFADPHRTVISSVTARPYGAGQVAELLSRQIESPVRWSETMAYLRERGTTELEEMGPGKVLTGLWKQGRADGAKARAVAPAPVAVVAGVPAAAAARAPASPAPVAARAATAAPARPSDPAPPAPRTAPSPASPVPPASVSRGQRAEELGSAEFRQDYGIRYAYLAGAMFRGIASAELVIRMGRAGLMGFFGAGGLGLDKVESALVRIKDALGPDGRYGMNLLHSIDDPAYEHAVVDLCLKHGVHDVEAAGFTQLTPAVVQFRFSGAHRDAAGRAVAVRRVLAKVSRPEVAAAFMAPAPAAILRRLTADGRLTPQEAEIAAELPVGQDICVEADSGGHTDGGAALTLLPSMIRHRDAAMARHGYGRRIRIGAAGGIGAPEAVAAAFVLGADFVLTGSVNQCSPEAGTSDAVKDILAGLDVQDTAYAPAGDMFEIGARVQVVRKGTLFAARGNKLYQLYRSHDSWESIDAGTRRSVEETYFKRPFAEVWEETRAYHLGRGRDAEIEKADRLPKHRMALAFRWYFARSVRWGLEGEPTQKVNYQIQCGPAIGAFNHVVRGTGLEDWRHRHVDLIAEHLMTGAADVLARR
In the case of B1, the “loading of the [2-14C]malonyl group onto the holo-ACP (SDS-PAGE and phosphor imaging, 5 min)” value was “with ACP6-1 being loaded less efficiently (FIG. 13C, lane 5)” in the series with LnmJ-ACP6-1 (holo-form); “six of the seven ACPs were efficiently loaded with the malonyl group (FIG. 13C, lanes 2-4 and 6-8)” with LnmJ-ACP4 (holo-form); “six of the seven ACPs were efficiently loaded with the malonyl group (FIG. 13C, lanes 2-4 and 6-8)” with LnmJ-ACP6-2 (holo-form); “six of the seven ACPs were efficiently loaded with the malonyl group (FIG. 13C, lanes 2-4 and 6-8)” in the series with LnmI-ACP3 (holo-form); “six of the seven ACPs were efficiently loaded with the malonyl group (FIG. 13C, lanes 2-4 and 6-8)” with LnmJ-ACP5 (holo-form); “six of the seven ACPs were efficiently loaded with the malonyl group (FIG. 13C, lanes 2-4 and 6-8)” with LnmJ-ACP7 (holo-form). Further, the “loading of the [2-14C]malonyl group onto the holo-ACP (SDS-PAGE and phosphor imaging, 5 min)” value with LnmJ-ACP8 (holo-form) is “six of the seven ACPs were efficiently loaded with the malonyl group (FIG. 13C, lanes 2-4 and 6-8)”. Further, the “loading of the [2-14C]malonyl group onto the tridomain protein (9% SDS-PAGE and phosphor imaging)” value with apo-LnmJ-(DH-ACP-KR) was “no loading was observed with the apo-LnmJ-(DH-ACP-KR) protein (lane 2)”. Besides, in the series with LnmJ-ACP6-2 (holo-form), the “malonyl loading of the two ACPs of PKS module 6 in vitro” value was “LnmG prefers ACP6-2 in vitro”. Further, the “loading of the [2-14C]malonyl group onto the holo-PCP (SDS-PAGE and phosphor imaging, 5 min)” value with LnmP PCP (holo-form) is on record as “no loading was observed for the LnmP PCP (FIG. 13C, lane 9)”. In the series with holo-LnmJ-(DH-ACP-KR), the “loading of the [2-14C]malonyl group onto the tridomain protein (9% SDS-PAGE and phosphor imaging, 2 to 60 min)” value was “LnmG efficiently loaded the malonyl group to holo-LnmJ-(DH-ACP-KR) (lanes 3-6)”.
